We go through two molecules from publication PMC7195849 (Science signaling, 2019).

In one assay the target is PKCθ C2 domain, 1-144 (UniProt Q04759). The assay can be described thus: ELISA, immobilized biotin-peptide, soluble GST-C2. The settings on record: reference: unphosphorylated Y126 peptide; sites Y126.
Assay [1] concerns the target T1, GST-PKCθ-C2^WT (GST fusion of the C2 domain of human PKCθ, aa 1–144) (human, UniProt Q04759 1-144).
T1 sequence (looked up): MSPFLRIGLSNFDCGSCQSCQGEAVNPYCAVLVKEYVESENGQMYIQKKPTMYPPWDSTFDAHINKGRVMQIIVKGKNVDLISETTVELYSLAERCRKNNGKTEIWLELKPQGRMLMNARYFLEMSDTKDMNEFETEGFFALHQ
The assay can be described thus: ELISA.

Ends that are not written are not given here. * marks the point of attachment. Biotin = O=C1N[C@H]2[C@H](CS[C@H]2CCCCC(=O)*)N1

In the case of “Zap70 (from UniProt P43403) pY126 peptide”, the “binding against the reference” value with PKCθ C2 domain, 1-144 is “stronger”.

In the case of Biotin-AMVRDYVRQTWK [Zap70 peptide Y126 (non-phosphorylated), N-terminally biotinylated], the binding result in assay [1] is “binds”.
